Results reported in paper PMC4820125, “Aptamer-Assisted Detection of the Altered Expression of Estrogen Receptor Alpha in Human Breast Cancer”.

B1: ERaptD4 (ssDNA)
DNA: ATACCAGCTTATTCAATTCGTTGCATTTAGGTGCATTACGGGGGTTATCCGCTCTCTCAGATAGTATGTGCAATCA
B2: ERaptD3 (ssDNA)
DNA: ATACCAGCTTATTCAATTGGGGATAACGTCGTCACGTCGTGTCATCATTGGTTCAGTCAGATAGTATGTGCAATCA
B3: ERaptD8 (ssDNA)
DNA: ATACCAGCTTATTCAATTCGAGTAACGCTGTCTCTTCCGAATCGGGGGAAGGCGGAGGAGATAGTATGTGCAATCA

What was measured:
PR-LBD = PR-LBD (UniProt P06401 675-933); assay: aptamer ELISA; negligible binding; ITC: 10 mM Tris-HCl pH 8.0, 25 C; aptamer binding buffer (SELEX): 20 mM Tris-HCl pH 7.6, 120 mM NaCl, 5 mM KCl, 1 mM MgCl2, 1 mM CaCl2, RT (ca. 27 C); ELISA: 2; conditions: protein: commercial; tags: GST
PR-LBD, sequence (P06401 675-933): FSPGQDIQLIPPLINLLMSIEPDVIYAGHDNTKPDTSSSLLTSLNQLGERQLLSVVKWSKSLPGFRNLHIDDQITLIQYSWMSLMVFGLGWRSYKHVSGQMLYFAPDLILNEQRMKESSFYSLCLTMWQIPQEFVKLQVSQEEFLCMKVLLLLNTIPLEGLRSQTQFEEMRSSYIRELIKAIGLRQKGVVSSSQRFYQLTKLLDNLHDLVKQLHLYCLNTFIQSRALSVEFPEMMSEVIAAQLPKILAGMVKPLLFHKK

PR-DBD = PR-DBD (human (cDNA from MCF-7), UniProt P06401 567-639); assay: as above; conditions: protein: recombinant; tags: His (pET100/D-TOPO)
PR-DBD, sequence (P06401 567-639): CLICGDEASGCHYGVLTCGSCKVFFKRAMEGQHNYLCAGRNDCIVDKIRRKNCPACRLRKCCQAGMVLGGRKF

ERα full length = ERα full length (UniProt P03372 1-595); assay: aptamer ELISA; 500 nM aptamer; ITC: 10 mM Tris-HCl pH 8.0, 25 C; aptamer binding buffer (SELEX): 20 mM Tris-HCl pH 7.6, 120 mM NaCl, 5 mM KCl, 1 mM MgCl2, 1 mM CaCl2, RT (ca. 27 C); ELISA: 2; conditions: protein: commercial, chain copies: 2
ERα full length, sequence (P03372 whole entry): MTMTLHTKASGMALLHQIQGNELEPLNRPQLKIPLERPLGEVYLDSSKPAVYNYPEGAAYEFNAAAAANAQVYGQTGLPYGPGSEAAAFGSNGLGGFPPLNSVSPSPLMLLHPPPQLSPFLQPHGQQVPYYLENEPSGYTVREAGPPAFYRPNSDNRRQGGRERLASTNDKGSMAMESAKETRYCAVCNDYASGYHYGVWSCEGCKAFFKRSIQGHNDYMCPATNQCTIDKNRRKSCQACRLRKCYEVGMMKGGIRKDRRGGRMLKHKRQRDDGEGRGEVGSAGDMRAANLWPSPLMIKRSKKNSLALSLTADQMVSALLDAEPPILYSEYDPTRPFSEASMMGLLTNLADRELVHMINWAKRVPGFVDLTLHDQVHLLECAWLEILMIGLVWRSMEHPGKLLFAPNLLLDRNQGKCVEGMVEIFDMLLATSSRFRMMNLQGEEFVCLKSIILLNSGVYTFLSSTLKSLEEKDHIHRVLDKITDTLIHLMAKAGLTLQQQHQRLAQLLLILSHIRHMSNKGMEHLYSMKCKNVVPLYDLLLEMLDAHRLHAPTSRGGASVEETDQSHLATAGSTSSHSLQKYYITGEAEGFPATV

Row | Binder | binding result (PR-LBD) | binding result (PR-DBD) | binding signal (ERα full length) | binding signal (ERα full length; label: biotin)
1 | B1 | no binding | no binding | 78.5 % of anti-ERα antibody signal | –
2 | B2 | – | – | – | 47.3 % of anti-ERα antibody signal
3 | B3 | – | – | – | 50.5 % of anti-ERα antibody signal
